Consider 4 molecules from US20210155689A1 (SHANGHAI PHARMAEXPLORER, published 2021).

Assay [1] deals with T1, monkey LAG-3 on cells (HEK293-cLAG-3 stable cell line) (monkey, UniProt P18627 24-525 (human entry)).
T1 construct: Full-length monkey (Chinese monkey) LAG-3 gene expressed on HEK293 cells
T1 chain: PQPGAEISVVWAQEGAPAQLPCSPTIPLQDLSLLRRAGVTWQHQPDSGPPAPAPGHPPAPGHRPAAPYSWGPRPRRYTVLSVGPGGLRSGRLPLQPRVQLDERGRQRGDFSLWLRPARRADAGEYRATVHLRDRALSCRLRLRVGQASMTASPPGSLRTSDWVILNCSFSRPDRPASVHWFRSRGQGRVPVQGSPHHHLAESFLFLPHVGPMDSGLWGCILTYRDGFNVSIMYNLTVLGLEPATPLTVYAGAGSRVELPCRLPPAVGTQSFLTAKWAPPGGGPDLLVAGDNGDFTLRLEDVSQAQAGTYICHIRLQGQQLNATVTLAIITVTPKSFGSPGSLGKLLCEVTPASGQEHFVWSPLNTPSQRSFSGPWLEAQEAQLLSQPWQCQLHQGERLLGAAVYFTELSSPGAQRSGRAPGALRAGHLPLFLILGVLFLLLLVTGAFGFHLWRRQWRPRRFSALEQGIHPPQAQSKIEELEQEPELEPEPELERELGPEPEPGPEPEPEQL
The assay is described as follows: FACS, HEK293-cLAG-3, antibody 1.600 nM. The source says: (§1) The pIRES plasmid with the monkey-derived full-length gene was transfected into the HEK293 cell line to construct a HEK293 stable cell line containing monkey LAG-3 (herein referred to as HEK293-cLAG-3 stable cell line). The HEK293-hLAG-3 stable cell line and HEK293-cLAG-3 stable cell line were expanded in a T-75 cell culture flask to a 90% confluence. The medium was aspirated, and the cells were washed with HBSS (Hanks' Balanced Salt Solution) 1-2 times, then treated with a enzyme-free cell dissociation fluid (Versene solution: Life technology) and the cells were collected. The cells were washed with HBSS buffer for 1-2 times. After counted, the cells were diluted with HBSS to 1-2×10⁶ cells per ml, added with 1% goat serum blocking solution, incubated on ice for 20-30 minutes, and then washed with HBSS for 2 times by centrifugation. The collected cells were suspended in the FACS buffer (HBSS+1% BSA) to 2×10⁶ cells/ml, added as 100 microliters per well to a 96-well FACS reaction plate, added with 100 microliters per well of the antibody sample to be tested, incubated on ice for 1-2 hours. The plate was washed twice with the FACS buffer by centrifugation, added with 100 microliters of fluorescent (Alexa 488)-labeled secondary antibodies per well, and incubated on ice for 0.5-1.0 hours. The plate was washed 2-3 times with FACS buffer by centrifugation, added with 100 μl fixative solution (4% Paraformaldehyde) per well to suspend the cells. 5-10 minutes later, it was washed 1-2 times with FACS buffer by centrifugation. The cells were suspended with 100 microliters of FACS buffer, FACS (FACSCalibur, BD) was used for detection and the results were analyzed.
On the technique in general: Flow cytometry measures light scatter and fluorescence of single cells or particles in a stream.

For assay [2], the target named is T1, monkey LAG-3 on cells (HEK293-cLAG-3 …). The assay is described as follows: FACS, HEK293-cLAG-3, antibody 40.000 nM.
Source text: as §1

Where a chain is given by its changes, count along the chain named.

B1: 105F1E10 mouse-human chimeric antibody (antibody, V domains shown)
VH: EVQLQQSGPELVKPGASVKMSCRASGYTFTDFKMHWMKQSHGKSLEWIGYIAPNNGGTAYNQKFRGKATLTVNESSNTAYMELRSLTSEDSAVYYCVDWDDVDYWGQGTTLTVSS
VL: DIKMTQSPSSMYASLGERVTITCKASQDINSYLSWFQQKSGKSPKTLIYRANRLVDGVPSRFSGSGSGQDYSLTISSLEYEDMGIYYCLQYVEFPLTFGAGTKLELK
notes: also called mAb009-105F1E10
Turning to B1, the values for the Mean fluorescence intensity in assay [1] and in assay [2] were 14.7 and 64.6, respectively.

B2: 405B8H3 mouse-human chimeric antibody (antibody, V domains shown)
VH: QVQLQQSGAELVRPGASVTLSCKASGYTFTDYEMHWVKQTPVHGLEWIGATDPETGNSAYNQKFKGKAIMTADKSSSTAYMELRSLTSEDSAVYYCISTGWNDWGQGTSLTVSS
VL: B1 VL with S40P, N52D, V55L, E81G, V92D, L96Y, A100G, L106I
notes: also called mAb103-405B8H3
With B2, the Mean fluorescence intensity turned out to be 29.4 in assay [1] and 90.8 in assay [2].

B3: 409B11E12 mouse-human chimeric antibody (antibody, V domains shown)
VH: B2 VH with P41T, G56S, N57Y, M70L, S98A
VL: B1 VL with I2L, S40P, V55L, V92D, L96Y, A100G, L106I
notes: also called mAb104-409B11E12
With B3, the Mean fluorescence intensity in assay [1] was 32.8; in assay [2], 108.

B4: 409D4E10 mouse-human chimeric antibody (antibody, V domains shown)
VH: B2 VH with Y27N, G56D, S58T, M70L, A72T, S98T, T99S
VL: B1 VL with S40P, V55L, V92N, L96Y, A100G, L106I
notes: also called mAb112-409D4E10
In the case of B4, the values for the Mean fluorescence intensity in assay [1] and in assay [2] were 25.8 and 93.4, respectively.
